For orientation: Kd means the equilibrium constant for the complex coming apart. The low end stands for tighter binding, the high end for weaker binding.

Test [1] deals with T1, human MCT1 (monocarboxylate transporter 1, SLC16A1) (human, UniProt P53985 1-500).
T1 construct: Multipass membrane transporter; also called human MCT1 protein
T1 sequence: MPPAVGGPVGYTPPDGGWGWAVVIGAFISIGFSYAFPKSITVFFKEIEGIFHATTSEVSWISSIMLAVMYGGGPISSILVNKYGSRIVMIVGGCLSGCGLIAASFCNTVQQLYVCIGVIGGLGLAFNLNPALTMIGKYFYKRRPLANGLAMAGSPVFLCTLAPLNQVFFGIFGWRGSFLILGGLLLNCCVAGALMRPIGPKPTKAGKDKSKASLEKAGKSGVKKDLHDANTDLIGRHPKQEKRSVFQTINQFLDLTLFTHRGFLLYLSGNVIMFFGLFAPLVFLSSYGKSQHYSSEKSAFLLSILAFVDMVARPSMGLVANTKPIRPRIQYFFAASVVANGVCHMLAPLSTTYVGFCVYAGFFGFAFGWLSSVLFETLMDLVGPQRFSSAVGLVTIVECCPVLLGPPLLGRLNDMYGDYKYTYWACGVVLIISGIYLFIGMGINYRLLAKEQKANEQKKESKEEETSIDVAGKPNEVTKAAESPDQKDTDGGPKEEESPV
The experiment in a line: Kinetic Exclusion Assay (KinExA).

For the next test, the target named is T2, rat MCT1 (rat, UniProt P53987 1-494).
T2 construct: whole, on cells; also called rodent MCT1
T2 sequence (looked up): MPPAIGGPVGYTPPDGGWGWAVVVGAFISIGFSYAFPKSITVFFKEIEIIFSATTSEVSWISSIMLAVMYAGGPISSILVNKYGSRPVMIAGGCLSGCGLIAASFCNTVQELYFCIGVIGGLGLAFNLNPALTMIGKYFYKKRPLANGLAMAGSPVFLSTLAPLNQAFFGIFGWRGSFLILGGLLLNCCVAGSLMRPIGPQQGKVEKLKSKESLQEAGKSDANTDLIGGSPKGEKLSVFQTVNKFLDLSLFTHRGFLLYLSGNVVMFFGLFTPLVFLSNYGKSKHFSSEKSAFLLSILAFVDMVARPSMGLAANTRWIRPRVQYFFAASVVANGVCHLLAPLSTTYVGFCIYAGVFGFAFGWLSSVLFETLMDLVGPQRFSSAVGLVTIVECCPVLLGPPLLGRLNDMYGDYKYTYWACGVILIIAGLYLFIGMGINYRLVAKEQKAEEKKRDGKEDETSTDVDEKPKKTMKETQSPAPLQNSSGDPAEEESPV
In words: flow cytometry, rat PBMC (live gate), resting and stimulated. On the technique in general: In flow cytometry, cells or beads pass a laser one at a time.

The target in test [2] is T1, human MCT1 (monocarboxylate transporter …). The experiment in a line: flow cytometry, MFI on 293T WT (MCT1+ 293) cells, full Mabs.

B1: MCT1 Ab1 (antibody, V domains shown)
VH: QVQLKATGPGLVQPTQTLSITCTVSGFSLTNYHLQWVRQTPGKGLEWMGFIRSSGNTEYNSEFKSRLSISRDTSKNQVFLKMNSLKTDDTGVYYCARNSWYHGTYYSPGYYVMDAWGQGASVTVSS
VL: NIHLTQSPSLLSASVGDRVTLSCKGSQNINNYLAWFQQKFGETPKLLIYNRHNLQTGIPSRFSGSGSGTDYTLTINSLQPEDVATYFCYQYSDGYTFGAGTKLELK
notes: also called INX310; Rat Anti-MCT1 antibody
B1 registered a Kd in test [1] of 6.3 nM. Besides, the binding result in the test with rat MCT1 is recorded as “no binding”.

B2: LM-187 (antibody, V domains shown)
VH: AVTLDESGGGLQTPGGLVSLVCKASGFGFTNYEIHWVRQAPGKGLEWVGFVSSGGAYADYAPAVKGRATITRDNGQSTVRLQLVNLRAEDTGTYYCTRAPCGSWCGWGYTGVDNIDAWGHGTEVIVSS
VL: ALTQPSSVSANPGGIVKITCSGGGRGSHYGWYQQKSPGSAPVTLIYANNQRPSDIPSRFSGSESGSTATLTITGVQAEDEAVYFCGGYDSGATFGAGTTLTVL
Consider B2, for which, in test [2], the binding result is recorded as “no binding”.

The values above are taken from patent US20190263931A1 (IMMUNOMETABOLISM DEVELOPMENT, published 2019).
